# Data taken from US20180094051A1, “METHOD FOR INHIBITING LYMPHANGIOGENESIS BY ADMINISTRATION OF AN INHIBITOR OF THE CXCL12 PATHWAY” (Tsinghua University, priority 2012, published 2018).
# “Also recorded” adds a separate entry of the source.
# B1: VEGF-C: Vascular Endothelial Growth Factor C, the major pro-lymphangiogenesis factor; purchased from R&D Systems (protein, UniProt P49767 112-227, looked up)
# Vascular endothelial growth …: AHYNTEILKSIDNEWRKTQCMPREVCIDVGKEFGVATNTFFKPPCVSVYRCGGCCNSEGLQCMNTSTSYLSKTLFEITVPLSQGPKPVTISFANHTSCRCMSKLDVYRQVHSIIRR
# Assays:
# Type in all cases: cell-based
# [1] = system: chemokine receptor CXCR4; assay: qRT-PCR of chemokine receptor mRNA in VEGF-C-stimulated lymphatic endothelial cells; conditions: VEGF-C-stimulated mouse lymphatic endothelial cells vs untreated cells
# Experimental: The isolation and extraction of total RNA from cells was performed using TRIZOL reagent (purchased from Invitrogen) following the standard operations as described in the reagent instructions. 1 mL of TRIZOL was added to the primary lymphatic endothelial cells (about 1×10^6) collected by centrifugation, repeatedly pipetted up and down for 30 times, and then set aside at room temperature for 5 minutes. After centrifugation at 10,000×g at 4° C. for 15 minutes, the supernatant was […] gently. 0.2 mL of chloroform was added to the supernatant, vortexed vigorously for about 15 seconds, and then set aside at room temperature for 3 minutes. […]
# The synthesis of first strand cDNA was performed using a Fermentas kit (RevertAid™ First Strand cDNA Synthesis Kits) according to the standard instructions. […] The reverse transcription product was used in subsequent PCR and fluorescence quantitative RT-PCR, and the rest of the product was stored in a refrigerator at −80° C.
# Fluorescence Quantitative Real-Time PCR was performed using a kit from Stratagene (Brilliant II SYBR® Green QRT-PCR Master Mix). The fluorescence quantitative PCR instrument was MX3000P (purchased from Stratagene), the fluorescence dye was SYBR Green, the volume of the reaction system was 20 μL, and the cycle number of the reaction was 40. […]
# [2] = system: HIF-1α; assay: Immunoblotting of HIF-1α in lymphatic endothelial cells; conditions: mouse lymphatic endothelial cells, 100 ng/mL VEGF-C
# [3] = system: mouse lymphatic endothelial cells; assay: Cell chemotaxis assay (Transwell); conditions: agent in outer chamber (CXCL12 1, 20, 100 ng/mL; VEGF-C 100 ng/mL), 6 hours
# Experimental: The migration ability of mouse lymphatic endothelial cells was assessed using 8-μm-pore Transwell bucket (filter membrane) (purchased from Costar). The transwell bucket was placed into a 24-well plate. Mouse primary lymphatic endothelial cells (mLECs) at passage 2 or 3 in good conditions were selected, and divided into five groups, four parallel samples for each group and approximately 2×10^4 cells for each parallel sample. The cells were digested with trypsin, resuspended in 200 μL of fresh serum-free endothelial cell culture medium (ECM, purchased from Sciencell), and then seeded into the inner chambers of the Transwell bucket. To each outer chamber was added 800 μL of serum-free endothelial cell culture medium mixed with 1 ng/mL, 20 ng/mL, 100 ng/mL of chemokine CXCL12 (purchased from R&D Systems), 100 ng/mL of VEGF-C (purchased from R&D Systems) and PBS control, respectively. The culture plate was placed into an incubator and incubated under 5% CO2 at 37° C. for 6 hours.
# After taking out the culture plate, the Transwell bucket was fixed in 4% paraformaldehyde solution for 15 minutes. The Transwell bucket was rinsed twice in PBS, stained with 0.1% crystal violet solution for 30 minutes, and then washed with PBS to remove the non-specifically bound crystal violet. The cells inside Transwell membrane were wiped off gently with medical cotton swabs. Note that the cells on the edge of the membrane should also be wiped off to avoid affecting cell counting. The Transwell bucket was placed under a microscope (Olympus IX71 microscope), and the cells migrated from the outer membrane were observed by microscopy. 8 fields per group were photographed randomly to count the cells.
# The migration ability of mouse lymphatic endothelial cells was assessed using 8-μm-pore Transwell bucket (purchased from Costar). The bucket was placed into a 24-well plate. Mouse primary lymphatic endothelial cells (mLECs) at passage 2 or 3 in good conditions were selected, and divided into six groups, four parallel samples for each group, and approximately 2×10^4 cells for each parallel sample. The cells were digested with trypsin and resuspended in 200 μL, of fresh serum-free endothelial cell culture medium (ECM, purchased from Sciencell). The cells were pretreated for 30 minutes with dimethyl sulfoxide (DMSO) as a control, protein kinase B (Akt) antagonist LY294002 (10 μM, purchased from Sigma-Aldrich) and extracellular signal-regulated kinase (Erk) antagonist U0126 (10 μM, purchased from Sigma-Aldrich), respectively, and then seeded into the inner chambers of the Transwell bucket. […] The cells were stained and the number of the migrated cells was counted.
# The migration ability of mouse lymphatic endothelial cells was detected by using 8-μm-pore Transwell bucket (purchased from Costar). […]
molecule,measurement,setting,value
B1,chemokine receptor CXCR4 mRNA level,[1],significantly upregulated by about three times; also recorded: specifically up-regulated the expression of chemokine receptor CXCR4
same,expression level of HIF-1α,[2],could indeed upregulate the expression level of HIF-1α; also recorded: could up-regulate the expression of CXCR4 and HIF-1α
same,migration of mouse lymphatic endothelial cells,[3],could promote the migration of mouse lymphatic endothelial cells
